B1: IR peptide IRKLDEESILKQK (XXKLDEESILKQK, XX = IR) (peptide)
peptide: IRKLDEESILKQK
notes: Biolayer interferometry
B2: Vombatus ursinus UBR-box domain (PS522) (other)
chain: MLCGKVFKSGETTYSCRDCAIDPTCVLCMNCFQSSVHKNHRYKMHTSTGGGFCDCGDTEAWKTGPFCTIHEP
B3: PS372 (ClpS homolog) (other)
chain: MAFPARGKTAPKNEVRRQPPYNVILLNDDDHTYRYVIEMLQKIFGFPPEKGFQIAEEVDRTGRVILLTTSKEHAELKQDQVHSYGPDPYLGRPCSGSMTCVIEPAV
notes: also called PS372-Bt; PS372-Bt-mPEG4

Assay [1] addresses T1, ClpS from Thermosynochoccus elongatus (teClpS) (Thermosynechococcus elongatus, UniProt Q8DJY3 6-94).
T1 construct: Dye-labelled or streptavidin-complexed depending on the assay; also called Thermosynechococcus elongatus ClpS
T1 sequence: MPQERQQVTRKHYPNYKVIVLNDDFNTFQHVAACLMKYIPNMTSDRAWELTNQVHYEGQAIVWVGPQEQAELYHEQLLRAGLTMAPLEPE
As to the kind of experiment: biolayer interferometry. For orientation: Biolayer interferometry detects binding as a change in optical thickness at a sensor tip.

Assay [2] concerns the target T2, RA peptide RAKLDEESILKQK (XAKLDEESILKQK, X = R).
T2 construct: Biolayer interferometry single-point screen of UBR-box homologs
T2 peptide: RAKLDEESILKQK
As to the kind of experiment: biolayer interferometry single-point screen, 30 C.

For assay [3], the target named is T3, KA peptide KAKLDEESILKQK (XAKLDEESILKQK, X = K).
T3 construct: Biolayer interferometry single-point screen of UBR-box homologs
T3 peptide: KAKLDEESILKQK
As to the kind of experiment: biolayer interferometry single-point screen, 30 C.

The target in assay [4] is B1. As to the kind of experiment: biolayer interferometry.
The target of assay [5] is T4, IQ peptide IQKLDEESILKQK (XXKLDEESILKQK, XX = IQ).
T4 construct: Biolayer interferometry
T4 peptide: IQKLDEESILKQK
As to the kind of experiment: biolayer interferometry.

Assay [6] has as its target T5, VR peptide VRKLDEESILKQK (XXKLDEESILKQK, XX = VR).
T5 construct: Biolayer interferometry
T5 peptide: VRKLDEESILKQK
As to the kind of experiment: biolayer interferometry.

Assay [7] has as its target T6, FITC-labeled FA peptide FAKLDEESILKQK-FITC.
T6 peptide: FAKLDEESILKQK-{FITC′}
As to the kind of experiment: fluorescence polarization, single point. A general note: In fluorescence polarisation assays a small probe gives low polarisation when free and higher when bound to something large.

Assay [8] deals with T7, FITC-labeled YA peptide YAKLDEESILKQK-FITC.
T7 peptide: YAKLDEESILKQK-{FITC′}
As to the kind of experiment: fluorescence polarization, single point.

For assay [9], the target named is T8, FITC-labeled WA peptide WAKLDEESILKQK-FITC.
T8 peptide: WAKLDEESILKQK-{FITC′}
As to the kind of experiment: fluorescence polarization, single point.

For assay [10], the target named is T9, LA peptide LAKLDEESILKQK (XAKLDEESILKQK, X = L).
T9 construct: Immobilized on the biolayer interferometry sensor
T9 peptide: LAKLDEESILKQK
As to the kind of experiment: biolayer interferometry as in Example 12.

Assay [11] concerns the target T10, IA peptide IAKLDEESILKQK (XAKLDEESILKQK, X = I).
T10 construct: Immobilized on the biolayer interferometry sensor
T10 peptide: IAKLDEESILKQK
As to the kind of experiment: biolayer interferometry as in Example 12.

The target in assay [12] is T11, VA peptide VAKLDEESILKQK (XAKLDEESILKQK, X = V).
T11 construct: Immobilized on the biolayer interferometry sensor
T11 peptide: VAKLDEESILKQK
As to the kind of experiment: biolayer interferometry as in Example 12.

The target in assay [13] is T12, F peptide FAKLDEESILKQK (XAKLDEESILKQK, X = F).
T12 construct: Immobilized on the biolayer interferometry sensor
T12 peptide: FAKLDEESILKQK
As to the kind of experiment: biolayer interferometry as in Example 12.

Assay [14] has as its target T13, Y peptide YAKLDEESILKQK (XAKLDEESILKQK, X = Y).
T13 construct: Immobilized on the biolayer interferometry sensor
T13 peptide: YAKLDEESILKQK
As to the kind of experiment: biolayer interferometry, peptide immobilized on the sensor, 30 C.

The target of assay [15] is T14, W peptide WAKLDEESILKQK (XAKLDEESILKQK, X = W).
T14 construct: Immobilized on the biolayer interferometry sensor
T14 peptide: WAKLDEESILKQK
Described as above.

Assay [16] concerns the target T15, FITC-labeled LA peptide LAKLDEESILKQK-FITC.
T15 peptide: LAKLDEESILKQK-{FITC′}
As to the kind of experiment: fluorescence polarization, FITC-peptide with ClpS:streptavidin complex, 23 C.

Assay [17] addresses T16, FITC-labeled IA peptide IAKLDEESILKQK-FITC.
T16 peptide: IAKLDEESILKQK-{FITC′}
The description is as above.

The target of assay [18] is T17, FITC-labeled VA peptide VAKLDEESILKQK-FITC.
T17 peptide: VAKLDEESILKQK-{FITC′}
The description is as above.

For the next assay, the target named is T18, I (IAWLVK).
T18 chain: IAWLVK
As to the kind of experiment: dynamic sequencing of EFIAWLVK with PS610, PS372, hTET and pfuTET.

Primed or numbered codes have the meaning given here. Ends that are not written are not given here. FITC′ = not defined here

Turning to B1, the binding result in assay [1] was “binds”.

For the molecule B2, the binding result in assay [2] and in [3] was “binds” throughout.

For the molecule B3, the binding result in assay [4] was “binds”; in assay [5] it was “binds”; in [6], “no binding”; in assay [7], “no binding”; in assay [8], “no binding”; in assay [9], “no binding”. Further, the binding result in [10] is on record as “binds”; in assay [11], “binds”; in assay [12], “binds”; in assay [13], “no binding”; in [14] it was “no binding”; in assay [15], “no binding”. Further, the binding result (in assay [16]; in assay [17]; in assay [18]; in the assay with I (IAWLVK)) was “binds” each time.

Values taken from US20210364527A1 (QUANTUM SI, published 2021).
